Assay: protease stability score; higher = more stable; yeast display proteolysis, trypsin and chymotrypsin;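 note: log10 excess protease needed over predicted unfolded state with 0 meaning unfolded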

For “DDEAQKLAEDYLTALQNNNPDKVIELLDPNARAEYGDKTYHGREQIHHFLRQFHKQARLQFTSYDVEVKNGQARLHMRVQVNHNGEPSQYEASIRISVHNGRMKEVQLQWSN”, the protease stability score was 1.58.
In the case of “DDEERAEQFFRDIVEAIRTNDEERLRHLFDENAHAQVGDKTLHGREQIVKEIVSMAQSADHVSFQLRDLSVDGETITFYFKVQYTRNGRQTSKDVIIVARQSGDKLSVKTEVDS”, the protease stability score is reported as 1.4.
“DEEALHLATQLYTNWRNNNPEEVVKLLDENARINVGDFNVTGRNNVRSTLEHLNREMHFEMRISSVDDHNGRAHLTVEARKNINGQPRNVSMKMEVQFHNGKIQQIVAHMPEEDIRTLQS” showed a protease stability score of 0.811.
Sequence “DEKEAKKLLEQFAKKVVNGDYEEVVKHVKDDGEAEYGDERKHGPDAVETFIRKYQKLGIKVTYDEVHVEGDTVTVKVRADYAGQTAHFKFQYHVRDQRLDRVEVKYDETAQKMIKHG” has a protease stability score of 0.542.
For “DEEKHAKEMADRFRKILDNGNEHSVEKMFDENARMSVGDRTIHGREKIAKKLITDVRRVDHLQVKVLSYHAHGDKIDLKVQQTLVVNGEDETRRYQMHLTRVNGRFVAVDAREQ”, the protease stability score was -0.07.
“DEEKIAQKAVDRVEEAMNRGDPDTMKHLLDKDARITYGDQQYHGREEVIKFMDEFVENVDHVNVEFKEVEVHNGRARASARVVYTHNGQSHDVKLEVVFLIQGDEVRLTHLHYG” gave a protease stability score of 2.11.
For “DEEEAHKVKDVVENGDPDTLQNMADKDATARYGDKQVHGREQVRTAIKLWMDHVDHIDIRNIHVEGNKVNVDAVFNVNGRNLNVRFRMEVHNGKIKSFELQATDERIRETLERILS”, the protease stability score was 1.02.
“DRNANKLATKVFTAYNRNNPKQLVENLDPNAELSYGDKEYHGRENMKKMVEDIKREMQLSIHIDHVDVHNGQARVEFVQENEHNGQPSRKHYVAHFDHENGRVKKLVFKESG” showed a protease stability score of -0.106.
With “EEETVKHLVQLFRTGDWDQLAKEMRDNVEVIIGDKRLHGRENAEQLARILKKHIDHQSYESMTFHNGKLVMKYEFVFNGRRVRARLVVNVHNGKIVNMQLDFTDPRDERLWKKVVE” the protease stability score was 1.66.
In the case of “DEDEQKVAKTFVEAVRQGDEKQIDDLADPNVRLRVGDKTLHGRDQLREHVRQMKEELKVEWSVQHVDFSDGRARIHAEMRVDVNGKPVTDDVTFFIEVKNGKVKNVEIHMDESVKREAEQ”, the protease stability score is reported as 0.548.
Work on “DQEEVRRVVEKVAKAVQNGDATRLRDMGKDGVKYRRVEEETHGPEAVEKVLKYLRKQGVKLQVKHVEVEGNTAQTEVDYRRGDETLTVHAKAKVQGGRIDEVQVDLDEKAKKYVDHG” yielded a protease stability score of 0.138.
“DEEAAKRLENILKAEERNDEDSLRRLMDKDAHINVGDRQVHGMDRRRENVQHQSRRSDIQLESINKHENGDTVHVDVVRRYQHNGRPSRERFDAVAQVHNGKMRSMTAQDSQ” showed a protease stability score of -0.44.
With “DEHNMKLASRLVRAVQTNDPDQWVRNVDKNVRVQVGDKTVHGREEFHRQMEKKAREMRYEVQMDQVTVHGDKVRIDITERSNVNGRPHHKRAEMIVHVSNGKVQRVEVQDRK” the protease stability score was -0.162.
In the case of “DEKKVEKVVREALKAMINGDKDKVRKLLKPDVQFHAGDVEMHGVDQVVKYYEKIKRQGVEMHIKEVKVTGNEAEVKYDLRADGTEATVKAKVVVENEKVDHVTAELTKTYDDLVKKS”, the protease stability score is reported as -0.107.
Sequence “DHEANQIAREFVKAIRTNNPTRASQNMDPNVRVTVGDHVFHGREEVKTWIHRLNKEARIDIHINTIESQGDNAKVVFKYRVEVDGRPDSRNVIVDVHAHNGKMKEVVYRVDEDEQHELKK” has a protease stability score of 0.368.
In the case of “DEEEQQKVADKIVEVLKSGNPDEMMKLADENVRAQVGDKTYHGREELKKWMKEVRDRVDRIRVETWEVHNGTVNIIVRMDVDGQTLTLTITANIHNGRIKQIVIEYRDDDELRKAQK”, the protease stability score is reported as 0.729.
With “DEENEQLFNEFLKAMEHGDPNRLNQLMDPDVHIRVGDKQIHGREEAAREIVRQMKEQNRHIDSIEVSAENGELTVNVEMFQTHDGKPKKYTYRAKIVFENGKIKHIDRKHSQ” the protease stability score was 0.884.
“DEHNNEMARKVLHAWRKGDENRVKRMLDPNARIVIGDKTIHGMEQMQTWVQELKKEITIDLKSVHVQSQGDKANVEFTHKQKDNGKPDSRKVTVIFVFSNGRIKRIQVDDDG” showed a protease stability score of 0.033.
For “DENHKVRELVDRFKEAYDSNDPDQYQNQFDKDATVTVGDKVFHGDEQAKQMAEDIMRNVDSFSISLKRVRVRGDKVRVSFKVVNNRNGRHKTIHVTAVFVFDNGRLRAKSWHFQ”, the protease stability score was 0.73.
With “DEEDLKRLAETFADALQRNDPSQLNKMIDPNAKVQYGEKTFHGREKLHEWAHEMKKQADHFEIRSITVEGESVVIDLRMIVNGHERRLNLTMHLKNGRIQHLRADSR” the protease stability score was 0.943.
In the case of “DEEANKVAKKLWEAIDHGNKEQAKELADPNAKAHVGDKSIHGMDTFVTWIKEIFDTMSFEVRIEDMKVHNGRLSANVRATFDINGQPRHQQARFKMDIHNGKISKVVIEMPKEKWKTILR”, the protease stability score is reported as 0.97.
For “DEENQKIFDEYVKALRTNNPERLNEMLDPNARVQVGDKEVHGMDDLSRTVNQMIDNLHLNLKIESVHVRGNTLSVDAEYVLNVNGKPQRRSVEIEIHAHNGTVKFLRMRVDPREEQKIKS”, the protease stability score was 0.363.
“DKELRKHLTEFVKNYQHGNERELNKYADPNVKFRYGDKTLNGREEWMKHIQRLKKEIRFEIDDFRIRARNGELDMTFDFKQEVNGRPKSDRAQMNVVMHNGKIVEIDFRVDPTFEKEVKG” gave a protease stability score of 0.376.
“DEDNAERVHTALDILERGNPEEVKKMFRDDVRATIGDTVIHGMTNFAHYMQRLMDHARVNITIRSWSVKNGRVEIDAEIHANHNGQPYHDRFKIKAEVTNGRFKYLQYDIDPDFLRDMTK” showed a protease stability score of 1.25.
In the case of “DDTAVKIATRFWKAVETNDEQTLRDNLDPNVEVRYGDKTYHGMEDILKRLRHDADNMRHKVEIKDYRTHNGQANIDMVVRQEHNGKPERRRFKLHFRISNGRVRTMKLNDDS”, the protease stability score is reported as 0.733.
“DETAVEIARDFLQAITNNNPQEAERLADPNVRWTVGDKSYSGMNEFSKIIKDLNDRSRFEYTDVKLDVTNGRARIELRMSRTVNGKPQSFDMVMNVVVHNGRIKHVHVHNKQ” gave a protease stability score of 1.4.
For “DEHKAHRRAQELVEVMKQGDFKRWQEMADPNADVHYGDKRVHGMNEAADVMRQIRNDADHIRVKTYEAKGERIHIDFRVSFNGKQITFDLVVEIRNGTIKTAQFDPDAIRHLES”, the protease stability score was 0.5.
With “DEEEAEKILEKLVKAVENGDETKLMQLGADGVRYKVGDREDHGPEAIQKAMQYLKRYGVRVEFKEVKHKGDRVTTVAEYENGDKRNTVTIHAHAKGGKIDEVQVNVDEDLVKFIKHG” the protease stability score was 0.266.
“DHEAKDVFEELLRRMKSGDEDEMKKLVDKNVRYTVGDKTLHGQEEIARHWYEQVKDMRIDIKVKDIKVHNGRVDVKFTFRHEHNGNPDSDKRRVNVEARNGKMQAVDDQKDS” showed a protease stability score of 0.148.
For “DEENLNQLKKFWHALQTNNPDQARKLADPNVRLHVGDKSVNGREEMVKRLVDKMHEMEIDYKVRDMHAHNGHIKVEAERVIHDNGQPRRATYEIRVIIKNGRIKEIQIHERQ”, the protease stability score was 1.07.
Work on “DDHRAHQMAEFVIDAIRTGDPDKFVNQADENVRVVIGDKQVQGHEEAREALKSLKDQADHVSLTDFRVHGDKVEVVFEARVNGVDLVMKVYARIHNGHLVMMSIDVTDPRKQKKADS” yielded a protease stability score of 1.11.
For “DEEEADKVAKDFNRMLTKGDEHRASQLFDENATVVVGDKTVHGTESIKKIIHEIHRKADHIEIDSVKNRGNKVQVDLHQDINGTRERYVFHVSFHNGRIKYAEINQD”, the protease stability score was -0.322.
“DEENIRVYQEMLEAIKEGDQKRVQELVDPNVEAVYGESQVHGREDIARDLRRVREESRRDVTTYKVTDTNGQITINVDFFQTHDGRPTRKEASVHVQITNGKVKFVEMRDDQ” gave a protease stability score of 0.248.
“DEKDAREWVKDREQNDFDQISRMMDENVKLEYGNKEVHGRERVNTELKKEEETADHVSIDRVEVEEGRAVIDAVVRFNGKDFKMVVTVSMENGKVKYIRDRFTDEQLEEDFVKQFN” showed a protease stability score of 0.728.
“DEETNKKFASELVHVLRTGDDERLKSMADENATLEVGDKTFHGREEMRKAAEEWQKEIDDLKIESLHVNGDKVVIHFVFTVNGRTDRQIMHLHFDNGKIKSAKMHSG” gave a protease stability score of 0.96.
“DEETLRQANRKIQEFLSTNNFDELAKQMDKDVQIRIGDKEVHGRKDAQKMLTDIKDDADHASVHHVDVRGDKAKVRFEVNHNGSVKDVTVTITFHNGRIKRAKWHDT” showed a protease stability score of 0.089.
“DEDKHAKRVMENLTRAMNQGDKRRAADMVDPNVRLVIGDKEYHGRHQFRRAIKELVDRADHIEIDVRDVKTKNGRVQAHAHVEATYNGKKNDFKMVAEVEVQGENVVVHQITLK” showed a protease stability score of 1.13.
In the case of “DDDKERKARKFAEIYMHGDWRKAHQYADPNVRIKVGDKTFQGRESLAKLVESLRKEQRLEMKRVEARVTNGRINLHLRFVVQKNGTPSHRRIHFDARMHNGKLKEMTENDKR”, the protease stability score is reported as 0.115.
Work on “DEQAKEHIEEWMKAVKTGDEHTLREMADENAHFEIGDKTLHGMREFVKEQAERFRNIRVSYKRIDIRVQGNKVTVVVRFVVQHDGRPDERTVTFVFTFHNGQIENMQVKDEQ” yielded a protease stability score of 1.17.
Sequence “DTENEKLQRRFMKALKTNDPHRAREMADENAKVQVGDKRIHGMQTVVEDLEREWREQRNDVKVRSVSNEGNKVNMDATMKVEHNGKPKHFNVVYRATVHNGRIHELRVERDG” has a protease stability score of 0.088.
Work on “DRTAEKVLRQFLHAIRDNNPEQMVDLMDPNVTLEIGDKEITGRESAARTAKTRNDEQRMSLSDYRIDVKGDRITADIDQYNEHNGKPRRHQYILDVNIHNGKIKSLVYESDK” yielded a protease stability score of -0.029.
For “DEEINTIAEEFMKAFQHNNPDKMRNLADENAQFRIGDDKIHGMETYAKEVKKENREQRVEFQIKDLKVQGNTVDMDVSFEVERNGQPHRFEVKLHFNFHNGKLKTLQWNTDG”, the protease stability score was -0.078.
“DDDAVRKLRELIKAVKDGDPSRAKELMDPNAEIVVGDHYIRGMDNFDKEIDRQKKEARVEYRLKRVRHDENHIKVDAEVIFNVNGRPVTFKLKMRVKLHNGKMIEVEQQVDESSIERVKS” gave a protease stability score of 1.01.
In the case of “DNDRVRKAHKLMRVIETGDPDKVNEYVDPNVHVEYGDKTIHGREELKKFIEKERHEMRVELKRVSADATGNKVDIKVHRVLDKNGKPETNNVRIIIVWDGNKIKSVSFQKDK”, the protease stability score is reported as 0.849.
“DEEELDNAKEMVKALLHGNPDRAKQLADPNAHYHVGDKKVHGNDNWAKLVRKERQELRVKIDRVDIKSKGNKVSVDIDVVHDHNGQPQKRNYRLHVEIHNGKVRNVKIQHDG” showed a protease stability score of 0.066.
“DESHARHLQRVFEKNDWQRLVELADEDVRIQIGNYDYHGRTAAQQMFEKLSKQIDHMEVKSMRVQGNKLQFDFEVNFNGKRNQAHFEMHFSNGRIKKIRFQFRDEEHEKDFDRHFS” showed a protease stability score of 1.46.
With “DQRDVEKIATKLSEVVRTGDPHEFAKMADPNAKVEVGDKSWRGHEEIRDWLKQITDEADSIHVDSVTAQGDKIDMTITVDFNGKRVQFDIKIQMENGRIKKMKLDPDQQRKLER” the protease stability score was 1.04.
“DEEAHKLATKWLRAVQTGDPDTVKELVDPNVRAVYGDQEITGRERLADEIKKTRDHSRVELESVRVTVHGDKVRAQADVRVNTNGKPERNTVDVTIVIHNGRIKRMHMQKSQ” gave a protease stability score of 0.7.
For “DHEAEKRIKKWVDAIHTGDEEQLKRLADPNVKVNVGNYSVRGRENLADMVSRMRDEIRLTYRDVKMDVTGDHARMDADVERDHNGRPERFELKANFRWRNGKITEIDAHWHQ”, the protease stability score was 1.42.
For “DEHNYTILQEIWEALKTNNKERFDELADPNARFQVGDKEFHGMETAARHLIRRHTEMRLDMKVDDYRLNGDHLSVDAKVRFRVNGQPNHYQMTLHAQIQGDKLKRMVWRIPESVLERIKS”, the protease stability score was 0.66.
